Source: the supplement of paper PMC10567573

B1: STX5 (parent)
chain: RSEFTLMAKRIGKDLSNTFAKLEK

Variants of: B1
Test: protein stability index of a GFP-peptide fusion (GPS, HEK-293T) (PSI 1-6); higher = more stable
Details: c terminus: a fixed tail appended
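Also: lentivirally expressed fusions sorted by FACS into six bins by GFP to DsRed ratio, PSI derived from sequencing read proportions per bin multiplied by bin number.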

Protein stability index of substitutions, site by site:
S2: A 1.36; P 2.07
D14: Y 2.65; S 2.13; T 4.17; P 2.49; K 3.03; Q 4.98; G 3.97; E 4.59; C 2.71; A 4.25; L 2.61; M 2.59; I 4.05; V 2.64
R10: E 2.94; T 1.99; Y 1.28; H 2.01; N 2.36; G 2.35; D 3.12; W 2.02; A 2.85; L 2.73; I 1.95; S 2.11; K 3.31; Q 1.05; C 2.66; M 1.99; V 1.09; P 4.03; F 2.29
E3: C 2.91; R 3.64; H 2.61; Q 4.2; M 2.25; T 3.43; Y 2.51; L 4.31; P 4.75; K 2.75
L6: D 1.4; V 2.28; C 2.21; N 2.06; T 2.48; R 3.66; W 2.53; P 2.85; F 2.36; H 1.86; G 1.63; I 3.08; Q 2.23
K9: M 1.92; W 1.97; Y 2.99; F 1.53; S 2.87; A 1.66; V 2.17; E 2.56; H 2.64; R 2.04; T 2.06; Q 2.54; D 2.83; N 2.63; P 2.94; L 1.88; G 2.01; I 1.82; C 2.1
K13: R 2.33; A 1.49; C 2.46; F 3.26; Q 2.35; N 2.06; D 3.34; L 2.83; T 1.46; G 2.84; V 2.1; E 2.34; P 2.54; M 1.07; S 2.55
A8: S 2.1; H 3.46; P 3.46; D 3.02; W 2.44; Q 2.96; T 1.54; N 3.4; C 2.49; G 2.49; K 2.99; R 2.79; E 2.87; I 2.79; Y 1.85
M7: V 2.73; Q 3.21; A 1.64; N 3.04; C 1.01; K 3.75; G 2.73; R 2.72; Y 2.39; T 2.54; F 3.38; E 3.2; P 3.36; S 3.12; H 2.03; W 3.31; D 4.15
F4: G 3.64; L 2.33; E 4.58; R 3.34; D 3.88; K 3.62; A 2.48; P 3.58; H 3.31; N 2.98; V 1.8; Q 3.49; S 3.69; C 2.65; M 2.35; Y 2.1; W 3.86
T5: L 2.46; Q 1.02; K 1.54; W 2.76; I 2.62; D 2.25; F 3.04; P 2.69; C 1.8; H 2.58; E 1.35; N 2.57
G12: Q 1.69; H 2.87; N 1.81; F 2.15; S 3.15; D 2.9; C 2.2; V 1.54; P 3.81; M 2.58; E 2.42; L 3.53; K 2.79; R 2.16
